Patent US20050196396A1 (GREENVILLE HOSPITAL SYSTEM, published 2005)

Target: T1, KDR (full length, on cells) (human, UniProt P35968 20-1356)
T1 construct: whole, on cells; also called VEGFR2; kinase domain receptor
Experiment: radioligand binding on HUVEC; 125I-KDR (Ig4-7) displaced by unlabeled KDR (Ig4-7)
Protocol: ¹²⁵I-KDR (Ig4-7) (100,000 cpm=<1 ng) was incubated with HUVEC.
Total binding of KDR (Ig4-7) was also compared between HUVEC and two human breast cancer cell lines that were reported to have KDR expression (T47-D and MCF-7 cell lines) (FIG. 7). Specific binding of KDR (Ig4-7) was approximately 88%.

T1 sequence (P35968 20-1356): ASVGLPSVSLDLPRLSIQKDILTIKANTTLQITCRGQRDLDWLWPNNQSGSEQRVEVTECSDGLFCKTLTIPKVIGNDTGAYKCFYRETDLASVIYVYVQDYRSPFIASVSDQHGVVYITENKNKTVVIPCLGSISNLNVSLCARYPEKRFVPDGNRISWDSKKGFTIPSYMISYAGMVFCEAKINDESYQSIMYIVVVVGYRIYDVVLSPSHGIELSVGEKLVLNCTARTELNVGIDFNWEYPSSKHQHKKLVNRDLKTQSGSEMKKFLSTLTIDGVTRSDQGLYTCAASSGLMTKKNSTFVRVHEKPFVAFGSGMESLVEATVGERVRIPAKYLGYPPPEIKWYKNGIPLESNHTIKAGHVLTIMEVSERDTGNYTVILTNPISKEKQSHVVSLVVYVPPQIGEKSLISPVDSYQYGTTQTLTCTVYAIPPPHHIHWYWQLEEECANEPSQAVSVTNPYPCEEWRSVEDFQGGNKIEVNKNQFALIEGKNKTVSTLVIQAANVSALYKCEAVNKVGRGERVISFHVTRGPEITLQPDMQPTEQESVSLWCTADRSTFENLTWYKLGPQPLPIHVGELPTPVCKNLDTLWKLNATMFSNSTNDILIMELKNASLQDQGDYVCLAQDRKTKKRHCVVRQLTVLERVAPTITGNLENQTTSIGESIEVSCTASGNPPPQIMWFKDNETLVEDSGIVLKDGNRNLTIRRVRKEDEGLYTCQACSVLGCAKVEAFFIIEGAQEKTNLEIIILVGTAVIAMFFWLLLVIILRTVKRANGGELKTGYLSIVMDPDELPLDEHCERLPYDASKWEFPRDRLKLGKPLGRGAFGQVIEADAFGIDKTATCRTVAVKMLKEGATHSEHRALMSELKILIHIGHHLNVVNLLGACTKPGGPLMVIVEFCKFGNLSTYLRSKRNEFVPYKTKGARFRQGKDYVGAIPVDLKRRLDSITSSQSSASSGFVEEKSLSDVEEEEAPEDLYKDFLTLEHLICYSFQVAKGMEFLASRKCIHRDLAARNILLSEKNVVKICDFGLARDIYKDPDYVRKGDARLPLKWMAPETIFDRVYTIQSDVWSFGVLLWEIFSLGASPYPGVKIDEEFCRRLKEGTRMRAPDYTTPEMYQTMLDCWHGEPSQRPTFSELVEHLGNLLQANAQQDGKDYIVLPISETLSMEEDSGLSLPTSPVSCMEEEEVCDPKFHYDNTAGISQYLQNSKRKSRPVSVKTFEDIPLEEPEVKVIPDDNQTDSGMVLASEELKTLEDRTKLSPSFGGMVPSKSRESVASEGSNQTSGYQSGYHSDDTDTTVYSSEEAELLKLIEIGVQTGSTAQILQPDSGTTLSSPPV

B1: KDR (Ig4-7) (receptor)
chain: HMFVAFGSGMESLVEATVGERVRIPAKYLGYPPPEIKWYKNGIPLESNHTIKAGHVLTIMEVSERDTGNYTVILTNPISKEKQSHVVSLVVYVPPQIGEKSLISPVDSYQYGTTQTLTCTVYAIPPPHHIHWYWQLEEECANEPSQAVSVTNPYPCEEWRSVEDFQGGNKIEVNKNQFALIEGKNKTVSTLVIQAANVSALYKCEAVNKVGRGERVISFHVTRGPEITLQPDMQPTEQESVSLWCTADRSTFENLTWYKLGPQPLPIHVGELPTPVCKNLDTLWKLNATMFSNSTNDILIMELKNASLQDQGDYVCLAQDRKTKKRHCVVRQLTVLERVAPTITGNLENQTTSIGESIEVSCTASGNPPPQIMWFKDNETLVEDSGIVLKDGNRNLTIRRVRKEDEGLYTCQACSVLGCAKVEAFFIIEGAQEK
modifications: 125I-labeled as tracer (labelled residues not stated); unlabeled as competitor
notes: also called 125I-KDR (Ig4-7); 125I-labeled KDR (Ig4-7)
EC50: ~10 mg/L
